For the assay, the target named is purified human platelet αIIbβ3 integrin (human, UniProt P05106 27-788). The assay is described as follows: ELISA; competition: αIIbβ3 (1 µg) immobilised on the plate, Fg 1 µM with apoA-IV 0–10 µM; TBS, 0.05% Tween-20, 1 mM each MgCl2, MnCl2, CaCl2; 1 h at 37 °C; anti-fibrinogen IgG and anti-mouse IgG-HRP. The conditions noted are these: both partners purified. Background: ELISA stands for enzyme-linked immunosorbent assay.

As a reminder, the IC50 is the concentration that gives 50% inhibition.

B1: recombinant human apoA-IV (ligand, UniProt P06727 21-396, looked up)
chain: EVSADQVATVMWDYFSQLSNNAKEAVEHLQKSELTQQLNALFQDKLGEVNTYAGDLQKKLVPFATELHERLAKDSEKLKEEIGKELEELRARLLPHANEVSQKIGDNLRELQQRLEPYADQLRTQVSTQAEQLRRQLTPYAQRMERVLRENADSLQASLRPHADELKAKIDQNVEELKGRLTPYADEFKVKIDQTVEELRRSLAPYAQDTQEKLNHQLEGLTFQMKKNAEELKARISASAEELRQRLAPLAEDVRGNLRGNTEGLQKSLAELGGHLDQQVEEFRRRVEPYGENFNKALVQQMEQLRQKLGPHAGDVEGHLSFLEKDLRDKVNSFFSTFKEKESQDKTLSLPELEQQQEQQQEQQQEQVQMLAPLES
notes: apolipoprotein A-IV, human; also called rH-ApoA-IV; rH-apoA-IV; source: E. coli, purified (His GraviTrap IMAC, tag cut with TEV protease); not shown: His6, N-terminal, cleaved
As to B1, the IC50 is 1320 nM.

Source of the values: paper PMC6127106, “Apolipoprotein A-IV binds αIIbβ3 integrin and inhibits thrombosis” (Nature Communications, 2018).
